Assay results taken from paper PMC12065894.

What was measured:
[1] = target: dasTMPRSS2 (active TMPRSS2 ectodomain with DDDDK zymogen activation motif) (human) (UniProt O15393)
[2] = target: dasTMPRSS11D (active, autocleaved TMPRSS11D with DDDDK zymogen activation motif) (human) (UniProt O60235)
[3] = target: dasTMPRSS2 (active TMPRSS2 ectodomain with DDDDK zymogen activation motif) (human) (UniProt O15393); remark: listed apart in the source

dasTMPRSS2 (active TMPRSS2 ectodomain with DDDDK zymogen activation motif) (human), sequence (O15393 other isoform, or with tags, fused parts or gaps, chain 1 of 2): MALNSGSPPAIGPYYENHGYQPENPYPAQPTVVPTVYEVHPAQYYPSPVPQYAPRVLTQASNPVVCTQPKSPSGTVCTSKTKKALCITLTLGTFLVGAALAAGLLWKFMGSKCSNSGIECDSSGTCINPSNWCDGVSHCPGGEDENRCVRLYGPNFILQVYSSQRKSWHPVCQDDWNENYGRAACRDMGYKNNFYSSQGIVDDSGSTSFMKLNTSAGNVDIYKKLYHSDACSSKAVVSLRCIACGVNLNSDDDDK
dasTMPRSS2 (active TMPRSS2 ectodomain with DDDDK zymogen activation motif) (human), sequence (O15393 256-492, chain 2 of 2): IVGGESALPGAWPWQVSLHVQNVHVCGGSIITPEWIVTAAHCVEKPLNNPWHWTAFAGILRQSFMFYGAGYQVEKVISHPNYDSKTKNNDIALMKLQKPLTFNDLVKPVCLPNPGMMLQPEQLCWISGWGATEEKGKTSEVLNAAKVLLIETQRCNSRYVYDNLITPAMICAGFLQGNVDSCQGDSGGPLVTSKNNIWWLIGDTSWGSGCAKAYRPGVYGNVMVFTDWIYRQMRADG
dasTMPRSS11D (active, autocleaved TMPRSS11D with DDDDK zymogen activation motif) (human), sequence (O60235 other isoform, or with tags, fused parts or gaps L182D | S183D | E184D | Q185D | R186K, chain 1 of 2): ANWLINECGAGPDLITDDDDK
dasTMPRSS11D (active, autocleaved TMPRSS11D with DDDDK zymogen activation motif) (human), sequence (O60235 187-418, chain 2 of 2): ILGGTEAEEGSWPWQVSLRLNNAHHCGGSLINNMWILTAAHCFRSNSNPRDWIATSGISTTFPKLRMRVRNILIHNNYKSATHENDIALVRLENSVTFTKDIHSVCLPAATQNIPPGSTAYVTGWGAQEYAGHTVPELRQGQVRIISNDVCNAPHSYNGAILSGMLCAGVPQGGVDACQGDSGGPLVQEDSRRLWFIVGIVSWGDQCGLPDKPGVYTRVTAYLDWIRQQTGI

Row | Substance | IC50 of inhibition of dasTMPRSS2 (1.5 nM) peptidase activity on Boc-QAR-AMC (100 µM), 10 min pre-incubation [1] [nM] | IC50 of inhibition of dasTMPRSS11D (15 nM) peptidase activity on Boc-QAR-AMC (100 µM) [2] [nM] | IC50 of inhibition of dasTMPRSS2 (1.5 nM) peptidase activity on Boc-QAR-AMC (100 µM) [3] [nM]
1 | Peptidomimetic 1, Ac-Glu-Gln-Arg-kbt (peptide) | 2.2 | – | –
2 | Peptidomimetic 2, Ac-Gln-Ser-Arg-kbt (peptide) | 2.1 | – | –
3 | Peptidomimetic 3, Ac-Glu-Glu-Arg-kbt (peptide) | – | 7.1 | 3.2
4 | Peptidomimetic 4, Ac-Glu-D-Glu-Arg-kbt (peptide) | – | 111 | 42
5 | Peptidomimetic 5, Ac-Glu-Orn-Arg-kbt (peptide) | – | 2100 | 6.2
